Patent publication US6410715 (QUESTCOR PHARMACEUTICALS, dated 2002)
Values belong to the molecule of their own block, whether it stands above or below them.

Experiments:
[1] = molecular target: eIF-4E of human HTK-143 cells (human) (UniProt P06730); assay: cell-based or functional assay
[2] = molecular target: 4E-BP1 prepared from untreated rat adipose tissue (rat) (UniProt Q62622); assay: far-Western on blotted heat-stable adipose tissue proteins, pool 3, no insulin
[3] = molecular target: 4E-BP1 prepared from insulin-treated rat adipose tissue (rat) (UniProt Q62622); assay: far-Western, pool 3, insulin-treated against untreated tissue of the same pool
Chain of 4E-BP1 prepared from insulin-treated rat adipose tissue (rat) (Q62622 2-117 limits assumed): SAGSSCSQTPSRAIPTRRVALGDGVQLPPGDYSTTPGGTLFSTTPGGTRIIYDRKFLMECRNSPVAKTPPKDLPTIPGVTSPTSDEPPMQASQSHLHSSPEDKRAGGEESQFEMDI

[4] = molecular target: 4E-BP1 prepared from untreated rat adipose tissue (rat) (UniProt Q62622); assay: far-Western on blotted heat-stable adipose tissue proteins, pool 1, no insulin
[5] = molecular target: 4E-BP1 prepared from untreated rat adipose tissue (rat) (UniProt Q62622); assay: far-Western on blotted heat-stable adipose tissue proteins, pool 2, no insulin
[6] = molecular target: 4E-BP1 prepared from insulin-treated rat adipose tissue (rat) (UniProt Q62622); assay: far-Western on blotted heat-stable adipose tissue proteins, pool 3, insulin 80 nM
[7] = molecular target: 4E-BP1 prepared from insulin-treated rat adipose tissue (rat) (UniProt Q62622); assay: far-Western on blotted heat-stable adipose tissue proteins, pool 2, insulin 80 nM
[8] = molecular target: 4E-BP1 prepared from insulin-treated rat adipose tissue (rat) (UniProt Q62622); assay: far-Western on blotted heat-stable adipose tissue proteins, pool 1, insulin 80 nM
[9] = molecular target: 4E-BP1 prepared from insulin-treated rat adipose tissue (rat) (UniProt Q62622); assay: far-Western, pool 1, insulin-treated against untreated tissue of the same pool
[10] = molecular target: 4E-BP1 prepared from insulin-treated rat adipose tissue (rat) (UniProt Q62622); assay: far-Western, pool 2, insulin-treated against untreated tissue of the same pool
[11] = molecular target: eIF-4E of rabbit reticulocyte lysate (rabbit, UniProt P29338 2-217); assay: cell-based or functional assay
Chain of eIF-4E of rabbit reticulocyte lysate (P29338 2-217 limits assumed): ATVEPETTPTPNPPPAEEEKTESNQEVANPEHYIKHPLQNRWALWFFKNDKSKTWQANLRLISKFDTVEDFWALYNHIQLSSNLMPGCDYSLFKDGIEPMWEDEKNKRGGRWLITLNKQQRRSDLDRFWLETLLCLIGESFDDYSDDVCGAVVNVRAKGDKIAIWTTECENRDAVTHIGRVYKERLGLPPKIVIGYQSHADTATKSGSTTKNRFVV

Chain of 4E-BP1 prepared from untreated rat adipose tissue (rat) (Q62622 2-117 limits assumed): as the sequence (Q62622 2-117 limits assumed) above
Chain of eIF-4E of human HTK-143 cells (human) (P06730 2-217 limits assumed): as the sequence (P29338 2-217 limits assumed) above, with P15T, A16T, D173E counted along it

CAT (%), cap-dependent expression from pGEMCAT/EMC/LUC in HTK-143 cells co-transfected with pRc/CMV/4E-BP1 (% of reporter plasmid alone) [1]: 28
CAT (%), cap-dependent expression from pGEMCAT/polio/LUC in HTK-143 cells co-transfected with pRc/CMV/4E-BP1 (% of reporter plasmid alone) [1]: 22
inhibition of CAT expression in transfected HTK-143 cells [1]: 4 to 5 fold
Molecule: 4E-BP1 (human, protein of 118 amino acids)

CAT (%), cap-dependent expression from pGEMCAT/EMC/LUC in HTK-143 cells co-transfected with pRc/CMV/4E-BP2 (% of reporter plasmid alone) [1]: 26
CAT (%), cap-dependent expression from pGEMCAT/polio/LUC in HTK-143 cells co-transfected with pRc/CMV/4E-BP2 (% of reporter plasmid alone) [1]: 24
inhibition of CAT expression in transfected HTK-143 cells [1]: 4 to 5 fold
Molecule: 4E-BP2 (human, protein of 120 amino acids)

Relative amount of HMK-eIF-4E bound (relative amount (Phosphorimager)) [2]: 214
Fold reduction [3]: 3.6 fold
Relative amount of HMK-eIF-4E bound (relative amount (Phosphorimager)) [4]: 152
Relative amount of HMK-eIF-4E bound (relative amount (Phosphorimager)) [5]: 210
Relative amount of HMK-eIF-4E bound (relative amount (Phosphorimager)) [6]: 60
Relative amount of HMK-eIF-4E bound (relative amount (Phosphorimager)) [7]: 70
Relative amount of HMK-eIF-4E bound (relative amount (Phosphorimager)) [8]: 41
Fold reduction [9]: 3.7 fold
Fold reduction [10]: 3 fold
Molecule: 32P-labelled HMK-eIF-4E probe

inhibition of translation of CAT (cap-dependent) [11]: ~5 fold
B1: GST-4E-BP2 fusion protein (other, not shown: a dimerising Fc or GST; large carriers; small tags and cut ends)
chain: MSSSAGSGHQPSQSRAIPTRTVAISDAAQLPHDYCTTPGGTLFSTTPGGTRIIYDRKFLLDRRNSPMAQTPPCHLPNIPGVTSPGTLIEDSKVEVNNLNNLNNHDRKHAVGDDAQFEMDI
